The DeepSol protein solubility set

Test: soluble on expression in E. coli; label from the status in PepcDB or PDB records

Row | Sequence | soluble on expression in E. coli
1 | MNSSRPYLVRALYEWIVDNDCTPHILVNAEFAGVKVPPGYASDGQIVLNVSPSAVRHLHMDNEAVSFEGRFGGVAQSLYIPALAVMAIYARENGQGMVFDLEQPGPVDDEPGDDDGGPSDEPPRPSGRPSLKVVK | not soluble
2 | MHENQQPQTEAFELSAAEREAIEHEMHHYEDPRAASIEALKIVQKQRGWVPDGAIHAIADVLGIPASDVEGVATFYSQIFRQPVGRHVIRYCDSVVCHINGYQGIQAALEKKLNIKPGQTTFDGRFTLLPTCCLGNCDKGPNMMIDEDTHAHLTPEAIPELLERYK | not soluble
3 | SNAMTQFAFVFPGQGSQSVGMLAEMAANYPIVEETFAEASAALGYDLWALTQQGPAEELNKTWQTQPALLTASVALWRVWQQQGGKMPALMAGHSLGEYSALVCAGVINFADAVRLVEMRGKFMQEAVPEGTGGMSAIIGLDDASIAKACEESAEGQVVSPVNFNSPGQVVIAGHKEAVERAGAACKAAGAKRALPLPVSVPSHCALMKPAADKLAVELAKITFSAPTVPVVNNVDVKCETDAAAIRDALVRQLYNPVQWTKSVEFIAAQGVEHLYEVGPGKVLTGLTKRIVDTLTASALNEPAALSAALTQ | soluble
4 | MHFADPREAREFLAAHPEVRSIELFLIDANGVPRGKLLHRDELLAVYESGRPLPSTILGLTINGDDVEETGLVWDVGDADCWTFPLPGSLTLQPWRQSPTGQVQVSMHPELGLPAAAGDPRHVLQRVIHSLQAEGFHPVMAVELEFYLLDRERDSDGRPLPALQMNGQRPRATQVYGVYELEQLQPFLDDLYAACEAQGLPARTAISEYAPGQVEITLQHRFDTLQAIDEGVRYKRLVKGVANRHGLQACFMAKPFADLSGSGLHLHVSLADAAGNNLFASEDPAGTPLLRQAIGGMKACLLESLALFCPNANSFRRFQANSYAPLAPTWGINNRTVSLRVPGGPASSRHIEHRICGADANPYLAAAALLAAVRLGIRERLDPGAPITGNGYAQATQALPSDWLTALRALEGSAWAREALGEDFLKIYLAIKQAEYRAFMGEVGE | not soluble
5 | MGSDKIHHHHHHMTPIQSGILLEHRRFAIFMEAMIQGEFDAIRQGCKKFCQTLQELQQQYPDAGLGAVLAFGNDVWRDLDCNHCAAELKPFTPLGKGLAPATQRDLLIHIQSLRHDVNFTLAQAALAAFGSAIRIEEETHGFRWVEDRDLSGFIDGTENPQGDARHAVAIIPEGQPDAGGSYVFTQRWEHNLKQLQRFSVEQQEQMIGRTKQDNEELSSDERPVTSHLSRVDLKEDGKGLKILRQSLPYGTASGKNGLYFVAYCARLHNIEQQLLSMFGGRDGKRDDMLRFTRAVSGSYFFAPSLDQLLSL | not soluble
6 | MHVDPIVEALIIRRKEHGLSREQMANIAGMSVKTYQRIERGESDLKLSQYRSILRSLNLTDLDIALDIRGIEHVTAEDLVTVARLLSPEAQSLLVRLLSLVLEQRSDPNAS | not soluble
7 | MAAMRKALPRRLVGLASLRAVSTSSMGTLPKRVKIVEVGPRDGLQNEKNIVSTPVKIKLIDMLSEAGLSVIETTSFVSPKWVPQMGDHTEVLKGIQKFPGINYPVLTPNLKGFEAAVAAGAKEVVIFGAASELFTKKNINCSIEESFQRFDAILKAAQSANISVRGYVSCALGCPYEGKISPAKVAEVTKKFYSMGCYEISLGDTIGVGTPGIMKDMLSAVMQEVPLAALAVHCHDTYGQALTNTLMALQMGVSVVDSSVAGLGGCPYAQGASGNLATEDLVYMLEGLGIHTGVNLQKLLEAGNFICQALNRKTSSKVAQATCKL | soluble
8 | DITVYNGQHKEAATAVAKAFEQETGIKVTLNSGKSEQLAGQLKEEGDKTPADVFYTELTATFADLSEAGLLAPISEQTIQQTAQKGVPLAPKKDWIALSGRSRVVVYDHTKLSEKDMEKSVLDYATPKWKGKIGYVSTSGAFLEQVVALSKMKGDKVALNWLKGLKENGKLYAKNSVALQAVENGEVPAALINNYYWYNLAKEKGVENLKSRLYFVRHQDPGALVSYSGAAVLKASKNQAEAQKFVDFLASKKGQEALVAARAEYPLRADVVSPFNLEPYEKLEAPVVSATTAQDKEHAIKLIEEAGLK | soluble
9 | MRHLFASLAFMLATSTVAHAEKLTLEAITGPLPLSGPTLMKPKVAPDGSRVTFLRGKDSDRNQLDLWSYDIGSGQTRLLVDSKVVLPGTETLSDEEKARRERQRIAAMTGIVDYQWSPDAQRLLFPLGGELYLYDLKQEGKAAVRQLTHGEGFATDAKLSPKGGFVSFIRGRNLWVIDLASGRQMQLTADGSTTIGNGIAEFVADEEMDRHTGYWWAPDDSAIAYARIDESPVPVQKRYEVYADRTDVIEQRYPAAGDANVQVKLGVISPAEQAQTQWIDLGKEQDIYLARVNWRDPQHLSFQRQSRDQKKLDLVEVTLASNQQRVLAHETSPTWVPLHNSLRFLDDGSILWSSERTGFQHLYRIDSKGKAAALTHGNWSVDELLAVDEKAGLAYFRAGIESARESQIYAVPLQGGQPQRLSKAPGMHSASFARNASVYVDSWSNNSTPPQIELFRANGEKIATLVENDLADPKHPYARYREAQRPVEFGTLTAADGKTPLNYSVIKPAGFDPAKRYPVAVYVYGGPASQTVTDSWPGRGDHLFNQYLAQQGYVVFSLDNRGTPRRGRDFGGALYGKQGTVEVADQLRGVAWLKQQPWVDPARIGVQGWSNGGYMTLMLLAKASDSYACGVAGAPVTDWGLYDSHYTERYMDLPARNDAGYREARVLTHIEGLRSPLLLIHGMADDNVLFTNSTSLMSALQKRGQPFELMTYPGAKHGLSGADALHRYRVAEAFLGRCLKP | soluble
10 | MGSDKIHHHHHHMKGFMNMFTNDQFKSLLIKTLERKSSSNYYEGGNEIVSKMKISEVTLDETDDFTYYKGYKKGWNTLCTYLKIRVPFDDLDFFESHKDLITQTASSIYDKQGDNVLVDTILVPLPENYEVINFSQLKISDVVSQAIEDAESFMSNGEYQRAFDRVHTAFHGYLIEILKKYEITVPRDENLSKLYSRIQQLIEKEIQPTELADIVKTTIRSSNGMISSLNEARNRHSLAHPNTNIIGKREAKLIIGISSTVTDYISGYLDK | not soluble
11 | MSLHELDYYLIELDNPFCSDLPKIIAVHDKNLRYTSMGRGSSIEMRTITAYGEILERYCLWNQTPDLTSAFCADKPMLSPEEQVLPISESIDDREVEWKSYYSLSNHQRIFIHRPINSACYSNYFTQTSNGSAVHETEELAINSALEELIERHLFNIFWLFESNILEKSFSSDEIEHAIESGWRLDFYEIRDYKSCTICVMINRSDRRFSKGAMTVGLSFGSDSDACIRAYTECLQTLEAYLAFDKKVNNASLYYLSGKGTSQWQRKINTSLSSTPLSITKSVFEKYSPYMFTEKTNNDLVYCEVVMPHLIPLQYEHERDIRVNPDLLGHLTHRNMCYPIGEGHHHHHH | not soluble
12 | QGMQTKKAFLYVFNTMSDWEYGYLIAELNSGRYFKKDLAPLKVITVGANKEMITTMGGLRIKPDISLDECTLESKDLLILPGGTTWSEEIHQPILERIGQALKIGTIVAAICGATDALANMGYLDTRKHTSNNLEYTKMVCPNYKGEKFYELGPAVSDANLVTASGIAPLEFAMEVLKKIDVFTLDALHSWYNLNKTHKPEYFFQLMNSINK | soluble
13 | LDFGALPPEINSGRMYCGPGSGPMLAAAAAWDGVAVELGLAATGYASVIAELTGAPWVGAASLSMVAAATPYVAWLSQAAARAEQAGMQAAAAAAAYEAAFVMTVPPPVITANRVLVMTLIATNFFGQNSAAIAVAEAQYAEMWAQDAVAMYGYAAASASASRLIPFAAPPKTTNSAGVVAQVAAVAAMPGLLQRLSSAASVSWSNPNDWWLVRLLGSITPTERTTIVRLLGQSYFATGMAQFFASIAQQLTFGPGGTTAGSGGAWYPTPQFAGLGASRAVSASLARANKIGALSVPPSWVKTTALTESPVAHAVSANPTVGSSHGPHGLLRGLPLGSRITRRSGAFAHRYGFRHSVVARPPSAG | not soluble
14 | MYEGESVVQLAKRMIEHLLKWGVTDAFTDKQIYTILEKAESTLKPLPAMLQVEHPITIVGDIHGQLDALIRYFDAVGYPPKVQFLFLGDYVDRGAKSFEVSLLLFCYKIRYPHLNVFNELPLCARVGQRILCMHGGISQNCNSWESFKALKKPNTPLTCDEGLQVDLMWADPTQDKCNTFAMNKQRAISVVFGQKGLDDFLKKLGLSLIVRAHEVSQEGFNFLFNKKCVTVFSAPYYCGNDTNCGAIMHVSDSYELSFTVLRPRMIATPENFEIVKLMENNYKGLMVASPDPNRGRHLQSADVPQPTPPSVQLVPPVTKPVEIKKQ | not soluble
15 | MSLISLSFFPGAKIGVLGLNGAGKSTLLRIMAGIDKDIDGEARPQPGLKVGYLPQEPKLDESKTVREVVEEAVADVAYALKRLDEVYAAYAEPDADFDALAKEQGELEALIQAKNGHNLDNALERAADALRLPEWDAQVKYLSGGERRRVAICRLLLENPDMLLLDEPTNHLDAESVAWLERFLVDYAGTVVAITHDRYFLDNAAGWILELDRGEGIPWQGNYTSWLEQKDARLKQEASQEKARQKTIEKELEWVRQNPKGRQAKSKARMARFEELQNTEHQKRNETNELFIPPGERLGDKVIEVKNLTKSFDGRVLIDDLSFSMPKGAIVGIIGPNGAGKSTLFKMLSGVEKPDSGTIELGDTVKLASVDQFRDSMNDKHTVFQEISEGADIIRINNFEIPARAYCSRFNFKGVDQQKVIGELSGGERNRVHLAKLLKAGGNVLLLDEPTNDLDVETLRALEEALLEFPGCAMVISHDRWFLDRIATHILDYRDEGKVNFYEGNYTEYMEWLKQTLGAQAAEPHRIKYKRITK | not soluble
16 | MSLISPIIRLSHVTFQTSSAARVIKEFVTKYQFHPFAARGLDGGSPCQVALKNGGVVFMVNENTPKTHENSVLLYDFPLQIPFPDTACNVTFEVEDVSGLYHHLVDEGCQLLLPPTELHDDFGSVTYCIVKSVVGNVSHTLIDRTHYRSSFLPGFEYLKNSTHNLSSGNMTEGHHHHHH | not soluble
17 | DDIDYANAEYYLGNTYDLVILDTVDNFQPINIGRLVDLARGGGLIIIYTNNLIKDKTFRTSIMRNGLILDEYEKRFKRKLYEHEGIFIIDVNEYIPKPFSGNTM | not soluble
18 | MGSDKIHHHHHHMAKAKTQYVCQNCGYISATYLGRCPNCGGWNTLVEETVSSSKSVPRQTAAGSKVKPTRMNDVTITKETRVKTGLDELNRVLGGGVVPGSLVLIGGDPGIGKSTLLLQVSGQLANTGGTVLYVSGEESASQIKMRAGRLGVANSGMYLYPETDMPSIEDVINQMQPDYVVIDSVQTMNVPEMNSAVGSVTQIREVTAELMRIAKSKGVTIFIVGHVTKEGAIAGPKILEHMVDTVLYFEGDMHHTYRILRSVKNRFGSTNEIGIFEMHQDGLQEVANPSEIFLEERLAGATGSAVVVSMEGTRPILVEIQALISPTMYGNAKRTSSGLDHNRVSLIMAVLEKRANLMLQNQDAYLKATGGVKLDEPAIDLAMAVAIASSYRDKEISPTDCFVGEIGLTGEVRRVNRIEERVKEAAKLGFKRIFVPRNNLQGWHAPKDIQVIGVTSIAEALHKVFN | not soluble
